Experimental data as given in paper PMC8809985 (2021).

What was measured:
[1] = target: T1, recombinant human tumor necrosis factor alpha (human, UniProt P01375 77-233); assay: BLI
[2] = target: T1, recombinant human tumor necrosis factor …; assay: BLI; remark: listed apart in the source

T1 sequence (P01375 77-233): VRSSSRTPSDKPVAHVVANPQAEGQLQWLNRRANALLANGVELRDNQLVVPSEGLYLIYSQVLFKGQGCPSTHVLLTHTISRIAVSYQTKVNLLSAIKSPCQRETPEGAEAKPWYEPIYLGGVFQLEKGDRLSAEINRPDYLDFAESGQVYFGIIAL

B1: Haidalimumab (antibody, V domains shown)
VH: EVQLVESGGGLVQPGGSLRLSCAASGFPFSNHWMNWVRQAPGKGLEWVGEIRSKSMNSATHYAESVKGRFTISRDDSKNSLYLQMNSLKTEDTAVYYCARNYYGSTYDHWGQGTLVTVSS
VL: EIVLTQSPDFQSVTPKEKVTITCRASQFVGYSIHWYQQKPDQSPKLLIKYASESRSGVPSRFSGSGSGTDFTLTINSLEAEDAATYYCQQSHSWHFTFGQGTKLEIK
Kd [1]: 0.774 nM | koff [2]: 0.00023 s⁻¹
